Results on 27 sequences are retold here after the supplement of paper PMC9170038.

Data set [1] has as its system MS2 coat protein. In words: apparent KD of MS2 coat protein, switch OFF state (with FMN for OFF switches, without FMN for ON switches); designed switch direction (-1 OFF switch, 1 ON switch): 1; higher = weaker reporter binding. As to conditions: FMN input: 0 or 200 uM; Eterna round: R93 (includes R88 designs). In short, it runs like this:
(§1)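 Designed RNA switches were transcribed on-chip from Illumina sequencing clusters and titrated with SNAP-549-labelled MS2 coat protein in twofold steps from 0.7 or 1.5 nM up to 3 µM. Each step lasted 0.8–1.5 h at first and 10–20 min by the end, in 100 mM Tris-HCl pH 7.5, 80 mM KCl and 4 mM MgCl2, without or with constant ligand. Apparent KD is the median, for each design, of fits to normalised cluster binding curves.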

Data set [2] deals with MS2 coat protein. In words: apparent KD of MS2 coat protein, switch ON state; designed switch direction (-1 OFF switch, 1 ON switch): 1; higher = weaker reporter binding. As to conditions: FMN input: 0 or 200 uM; Eterna round: R93 (includes R88 designs). In short, it runs like this:
as §1

“CGAAGACAUGAGGAUCACCCAUGUCGUCGUAACAGAGGAUAUGGGAACGCCAAGGGCGCAUCAGAAGGCUGAAAAC [Gediaton]”: the entries for the “apparent KD of MS2 coat protein” value in the data set on MS2 coat protein [1] and with MS2 coat protein [2] were 31 nM and 16.2 nM, respectively.
The matching figures for “CGAGUACAUGAGGAUCACCCAUGUUAUGAAUUGUCAGGAUAUGGGUAGAGGUGACAUGCGCCAGAAGGGACGUCUG [JR_SS001_Sub1005]”: 52.8 nM and 194 nM.
The matching figures for “CGGAGACAUGAGGAUCACCCAUGUGAGAAGAGGCGAGGAUAUCGAAAGAAAGAAGAGAAACGAGAAGGCGCGAGAU [salish99-SS1-069]”: 29.8 nM and 20.4 nM.
The like results for “GAAAAACAUGAGGAUCACCCAUGUGAAAACUUGGGAGGAUAUACUAAGACGAAAGUCGAGGUAGAAGGCCUAAAAG [Same State 1.4i (Mat - Mod of Eli - )]” were, in that order, 74.1 nM and 22.4 nM.
Take “GAAAAACAUGAGGAUCACCCAUGUGAGAAUAUGGGAGGAUAUACAAGGACGAAAGUCAAGGUAGAAGGCCUAAAAG [Mat - Same State 1 - Eli mod - 28]”: the “apparent KD of MS2 coat protein” value was determined as 155 nM with MS2 coat protein [1] and 34.3 nM in the data set with MS2 coat protein [2].
The like results for “GAAAAACAUGAGGAUCACCCAUGUGAGAAUAUGGGAGGAUAUUCAAAGACGAAAGUCAAAGAAGAAGGCCUAAAAG [Mat - Same State 1 - Eli mod - 37]” were, in that order, 276 nM and 31.2 nM.
Turning to “GAAAAACAUGAGGAUCACCCAUGUGUAAAUAUGGGAGGAUAUACAAAGACGUAAGUCAGAGUAGAAGGCCUAAAAG [Garnet 93]”, the “apparent KD of MS2 coat protein” value was found to be 176 nM in the data set with MS2 coat protein [1] and 29 nM with MS2 coat protein [2].
As to “GAAAUACAUGAGGAUCACCCAUGUUAGGUAAAACAAGGAUAUCUAGAUAAAUAAAAAUAUAGAGAAGGUGUAUAAA [JR_SS001_Sub206]”, the entries for the “apparent KD of MS2 coat protein” value with MS2 coat protein [1] and in the data set with MS2 coat protein [2] were 25.1 nM and 20.6 nM, respectively.
The like results for “GAAGACAUAGUACAGGAUAUAUGAAUAGUCACAUGAGGAUCACCCAUGUCCAUUUAUAUGGGCACAUAGAAGGGUGGUAGUUGUC [Mat - Same state - Malcolm Mod - D125]” were, in that order, 35.3 nM and 8.69 nM.
The like results for “GACAAACAUGAGGAUCACCCAUGUAGAAAUAUGGGAGGAUAUACAAAGACGAAAGUCAAAGUAGAAGGCCUAAAAG [77%, Mat - Mod of Eli - With 1 more C's]” were, in that order, 79 nM and 21.7 nM.
The matching figures for “GAGAAACAUGAGGAUCACCCAUGUAGAAAUAUGGGAGGAUAUACAAAGACGAAAGUCAAAGUAGAAGGCCUAGAAG [77%, Mat - Mod of Eli - With 2 more G's]”: 51.6 nM and 21.9 nM.
For the sequence “GAGAAACAUGAGGAUCACCCAUGUAGAGAUAUGGGAGGAUAUACAGAGACGAGAGUCAAAGUAGAAGGCCUAGAAG [77%, Mat - Mod of Eli - With 5 more G's]”, the figures for the “apparent KD of MS2 coat protein” value in the data set on MS2 coat protein [1] and in the data set with MS2 coat protein [2] were 46.4 nM and 25.5 nM, respectively.
The matching figures for “GAGAAGAAGAGAGAGGAUAUCCAAAGGAAAACAUGAGGAUCACCCAUGUAAAAGGUAGGAAAUUGGGAGAAGGCUCAAAGGAGGG [salish99-ss2-031]”: 29.5 nM and 23.2 nM.
The like results for “GAGGACGUAGGAUAGGAUAUGUGAAUAAUUACAUGAGGAUCACCCAUGUCCAUUUAUAUGGGAACAUAGAAGGGUUUUCGUUAUC [SameState2 Malc#40]” were, in that order, 387 nM and 646 nM.
The like results for “GGGAGACAUGAGGAUCACCCAUGUGAAAACGUGCGAGGAUAUGAAUGGAAACCAUACUGUUCAGAAGGCGUUUGUC [Titus Petronius Secundus]” were, in that order, 69.2 nM and 46.5 nM.
As for “GGGAGACAUGAGGAUCACCCAUGUGAGAAGAGGCGAGGAUAUCGAAAGAAAGAAGAGAAACGAGAAGGCGCGAGUA [salish99-SS1-050]”, the “apparent KD of MS2 coat protein” value in the data set on MS2 coat protein [1] stood at 65.5 nM; in the data set with MS2 coat protein [2], 29.7 nM.
The like results for “GUAAGACAUGAGGAUCACCCAUGUAUGCGUCAGCAAGGAUAUGGGAAUAAAAGACAGAAACCAGAAGGUGCUGUUG [Enqudi]” were, in that order, 153 nM and 26.1 nM.
The matching figures for “GUGGACAUAGGAUAGGAUAUAUGAAUAAUUACAUGAGGAUCACCCAUGUCCAUUUAUAUGGGAACAUAGAAGGGUUGUAGUUAAC [Mat - Same state - Malcolm Mod - D131]”: 81.9 nM and 117 nM.
“GUGGCCUAGGCACAGGAUAUGUUGCUCGUAACAUGAGGAUCACCCAUGUGCCUAUGAGAUUUAAUGCAGAAGGGUGCACGCCACG [Edbeso]”: the figures for the “apparent KD of MS2 coat protein” value with MS2 coat protein [1] and with MS2 coat protein [2] were 233 nM and 14.7 nM, respectively.
The like results for “GUGUAAAGAAUCGAGGAUAUCCUGAAAAGCACAUGAGGAUCACCCAUGUAAGAGCGAGAAUAAUGGGAGAAGGCGAGUUAUCGGU [JR_SS002_Sub1711]” were, in that order, 33 nM and 20.1 nM.
The matching figures for “UACACGCUGGCGCAGGAUAUGUCGCUGGUGACAUGAGGAUCACCCAUGUAUACCAUUGCGGUUAAGCAGAAGGGUGAGAAGCGUG [Bidibeso]”: 89.8 nM and 23.5 nM.
The matching figures for “UAGAGACAUGAGGAUCACCCAUGUAGGAUUAUGGGAGGAUAUACAAAGACGAGAGUCAGAGUAGAAGGCCUAGGAC [salish99-ss1-136(!)]”: 60.1 nM and 21.4 nM.
For “UAUAGACAUGAGGAUCACCCAUGUAGAAUUAUGGGAGGAUAUACAAAGACGAGAGUCAGAGUAGAAGGCCUAGGAU [salish99-ss1-154]”, the “apparent KD of MS2 coat protein” value with MS2 coat protein [1] was 63.7 nM; in the data set with MS2 coat protein [2] it was 22.2 nM.
Regarding “UCAGUGCCGACGAAGGAUAUAGCGGGUGAGACAUGAGGAUCACCCAUGUAUGCAGAACUCAUCCUCUAGAAGGUUGAGACGGCAA [Onaaror]”, the “apparent KD of MS2 coat protein” value is 84.3 nM in the data set with MS2 coat protein [1] and 101 nM with MS2 coat protein [2].
The like results for “UGGAGACAUGAGGAUCACCCAUGUGAGAAGAGGCGAGGAUAUCGAAAGAAAGAAGAGAAACGAGAAGGCGCGAGAC [salish99-SS1-045]” were, in that order, 41.9 nM and 25.2 nM.
For the sequence “UGUUCGAGUAGUGAGGAUAUUCAUGGGCCCACAUGAGGAUCACCCAUGUAAAGGACCGGGCCGAAGGAGAAGGCGCGUAAAAUUA [Esenan]”, the results for the “apparent KD of MS2 coat protein” value in the data set on MS2 coat protein [1] and in the data set on MS2 coat protein [2] were 73.3 nM and 28.9 nM, respectively.
With “UUACAACAUGAGGAUCACCCAUGUAAACCCGACUAAGGAUAUGGAGUGAAAGAUAUCAUCCCAGAAGGUAGAAAUA [Istegeisis]”, the “apparent KD of MS2 coat protein” value with MS2 coat protein [1] was 53.3 nM; in the data set with MS2 coat protein [2] it was 48.2 nM.
